Experimental data from patent US12269859B2, “Synthetic immune receptors and methods of use thereof” (Angeles Therapeutics, Inc., priority 2016, dated 2025).

Test system: target antigen-expressing cell line
Test: Jurkat NFAT-GFP assay, coculture with target cell lines expressing the respective target antigen (summary Table 10A)
Type: cell-based, human
Parameters: key: The signs +/−, +, 2+ etc. after the name of the cell lines indicate the relative degree of positivity on the Jurkat-NFAT-GFP assay as measured by the % GFP positive cells; +: relative degree of positivity on the Jurkat-NFAT-GFP assay as measured by the % GFP positive cells; 2+: relative degree of positivity on the Jurkat-NFAT-GFP assay as measured by the % GFP positive cells
Outline: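 Positivity is scored when SIR-expressing reporter Jurkat cells show more GFP-positive cells than parental controls after coculture with the antigen-bearing line. Effector-to-target ratio is about 1:2, coculture lasts roughly 4–18 hours, and GFP is quantified by FACS.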

Row | Molecule | NFAT-GFP ASSAY Positive Cell lines (coculture with L363 cells) | NFAT-GFP ASSAY Positive Cell lines (coculture with U266 cells)
1 | 060616-K04 (protein, Synthetic Immune Receptor (SIR)) MALPVTALLLPLALLLHAARPDIQMTQSPSSLSASVGDRVTITCKASQDVGIAVAWYQQKPGKVPKLLIYWASTRHTGVPDRFSGSGSGTDFTLTISSLQPEDVATYYCQQYSSYPYTFGQGTKVEIKLEGKPIPNPLLGLDSTGSGEDLKNVFPPEVAVFEPSKAEIAHTQKATLVCLATGFYPDHVELSWWVNGKEVHSGVCTDPQPLKEQPALNDSRYCLSSRLRVSATFWQNPRNHFRCQVQFYGLSENDEWTQDRAKPVTQIVSAEAWGRADCGITSASYHQGVLSATILYEILLGKATLYAVLVSALVLMAMVKRKDSRGRAKRSGSGATNFSLLKQAGDVEENPGPTSMDWIWRILFLVGAATGAHSFEEVQLVESGGGLVQPGGSLRLSCAASGFDFSRYWMSWVRQAPGKGLEWIGEINPDSSTINYAPSLKDKFIISRDNAKNSLYLQMNSLRAEDTAVYYCARPDGNYWYFDVWGQGTLVTVSSTREQKLISEEDGSGIQNPDPAVYQLRDSKSSDKSVCLFTDFDSQTNVSQSKDSDVYITDKCVLDMRSMDFKSNSAVAWSNKSDFACANAFNNSIIPEDTFFPSSDVPCDVKLVEKSFETDTNLNFQNLSVIGFRILLLKVAGFNLLMTLRLWSSRAKRSGSGVKQTLNFDLLKLAGDVESNPGPSRGHMTEYKPTVRLATRDDVPRAVRTLAAAFADYPATRHTVDPDRHIERVTELQELFLTRVGLDIGKVWVADDGAAVAVWTTPESVEAGAVFAEIGPRMAELSGSRLAAQQQMEGLLAPHRPKEPAWFLATVGVSPDHQGKGLGSAVVLPGVEAAERAGVPAFLETSAPRNLPFYERLGFTVTADVEVPEGPRTWCMTRKPGA | L363 (2+) | 
2 | 041416-P02 (protein, Polynucleotide encoding a Synthetic Immune Receptor (SIR)) MALPVTALLLPLALLLHAARPDIVMTQSQKSMSTSVGDRVSITCKASQDVITGVAWYQQKPGQSPKLLIYSASYRYTGVPDRFTGSGSGTDFTFTISNVQAEDLAVYYCQQHYSTPLTFGAGTKLELKLEGKPIPNPLLGLDSTGSGEDLKNVFPPEVAVFEPSKAEIAHTQKATLVCLATGFYPDHVELSWWVNGKEVHSGVCTDPQPLKEQPALNDSRYCLSSRLRVSATFWQNPRNHFRCQVQFYGLSENDEWTQDRAKPVTQIVSAEAWGRADCGITSASYHQGVLSATILYEILLGKATLYAVLVSALVLMAMVKRKDSRGRAKRSGSGATNFSLLKQAGDVEENPGPTSMDWIWRILFLVGAATGAHSFEQVQLQQPGAELVRPGASVKLSCKASGYSFTTYWMNWVKQRPGQGLEWIGMIHPSDSETRLNQKFKDKATLTVDKSSSTAYMQLSSPTSEDSAVYYCARSTMIATRAMDYWGQGTSVTVSSTREQKLISEEDGSGTPFPSLAPPIMLLVDGKQQMVVVCLVLDVAPPGLDSPIWFSAGNGSALDAFTYGPSPATDGTWTNLAHLSLPSEELASWEPLVCHTGPGAEGHSRSTQPMHLSGEASTARTCPQEPLRGTPGGALWLGVLRLLLFKLLLFDLLLTCSCLCDPAGPLPSPATTTRLRALGSHRLHPATETGGREATSSPRPQPRDRRWGDTPPGRKPGSPVRAKRSGSGVKQTLNFDLLKLAGDVESNPGPSRGHMTEYKPTVRLATRDDVPRAVRTLAAAFADYPATRHTVDPDRHIERVTELQELFLTRVGLDIGKVWVADDGAAVAVWTTPESVEAGAVFAEIGPRMAELSGSRLAAQQQMEGLLAPHRPKEPAWFLATVGVSPDHQGKGLGSAVVLPGVEAAERAGVPAFLETSAPRNLPFYERLGFTVTADVEVPEGPRTWCMTRKPGA | (+/−) | U266 (+/−), L363
